# Where a chain is given by its changes, count along the chain named.
# B1: 1910G2HzL7H7 (antibody, V domains shown)
# VH: EVQLVESGGGLVQPGGSLRLSCAASGFTFSNFWMTWVRQAPGKGLEWVASITHSGGITYYADSVKGRFTISRDDSKSTLYLQMNSLRAEDTAVYYCSRDPTEAPFDYWGQGTLVTVSS
# VL: DIQMTQSPSSLSASVGDRVTITCQASQNINNYIAWYQQKPGKAPKQLIRYTSTLVSGVPSRFSGSGSGKDYTFTISSLQPEDIATYYCLQYDNVPNTFGQGTKLEIK
# notes: Only the variable domains are tied to the name; Full chains are not tied to the name; also called humanized antibody 1910G2HzL7H7; 1910G2HzL7 + 1910G2HzH7
# B2: 1910G2HzL2H2 (antibody, V domains shown)
# VH: B1 VH with A61V, S75A, T78S
# VL: B1 VL
# notes: Only the variable domains are tied to the name; Captured on an AHC sensor and detected with anti-human secondary antibody; also called humanized antibody 1910G2HzL2H2; 1910G2HzL2 + 1910G2HzH2
# B3: 1910G2HzL3H3 (antibody, V domains shown)
# VH: B1 VH with T35S, A61V, D74N, S75A, T78S, T112V, L113M
# VL: B1 VL with V58T, S77N
# notes: Only the variable domains are tied to the name; Full chains are not tied to the name; also called humanized antibody 1910G2HzL3H3; 1910G2HzL3 + 1910G2HzH3
# B4: 1910G2HzL4H4 (antibody, V domains shown)
# VH: B1 VH with A61P, S77N
# VL: B1 VL
# notes: Only the variable domains are tied to the name; Full chains are not tied to the name; also called humanized antibody 1910G2HzL4H4; 1910G2HzL4 + 1910G2HzH4
# B5: 1910G2HzL9H9 (antibody, V domains shown)
# VH: B1 VH with T35S, S77N
# VL: B1 VL with Y71F
# notes: Only the variable domains are tied to the name; Full chains are not tied to the name; also called humanized antibody 1910G2HzL9H9; 1910G2HzL9 + 1910G2HzH9
# B6: anti-human PD-L1 monoclonal antibody 50G2-3 (antibody, V domains shown)
# VH: B1 VH with G16R, R19K, A23V, V37I, A61P, S75A, A88S, V93T, T112V, L113M
# VL: DIQMTQSPPSLSASLGDQVTITCQASQNINNYIAWYQQKPGKAPRQLIRYTSTLVSGTPSRFSGSGSGKDYSFSISNVESEDIASYYCLQYDNVPNTFGAGTKLELK
# notes: also called murine hybridoma clone 50G2-3
# Columns and labels:
# [1] = target: T1, human PD-L1 (Acro, Catalog Number: H5229) (human, UniProt Q9NZQ7 19-238); experiment: BLI, Octet RED96e, antibody on AHC sensor, antigen 100 nM, 1:1 fit
# T1 construct: Soluble antigen in the BLI assay; also called antigen
# T1 sequence (Q9NZQ7 19-238 limits assumed): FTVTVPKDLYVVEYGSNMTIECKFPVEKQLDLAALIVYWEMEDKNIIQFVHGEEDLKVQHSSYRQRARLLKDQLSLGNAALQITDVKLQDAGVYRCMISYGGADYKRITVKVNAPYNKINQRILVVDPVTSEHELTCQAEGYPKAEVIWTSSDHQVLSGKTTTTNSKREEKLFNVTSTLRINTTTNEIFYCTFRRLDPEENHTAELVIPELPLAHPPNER
# Description: (2) Detection of samples on machines (Octet Data Acquisition 11.1.0.11): First, the sample was added into a 96-well plate (Greiner bio-one, 655209) with a system of 200 μL/well. Then the software parameters were set, the plate temperature was set to 30° C., and the frequency of collecting standard dynamic signals was 5.0 HZ. Next, the AHC sensor (Fortébio, Catalog Number: 18-0015) was pre-wetted with 1xPBST for 10 minutes, and then the sample was detected on the instrument. Each cycle incluedes the following steps: 1) immersing in buffer for 60 seconds; 2) detecting whether the antigen nonspecifically binding to the sensor; 3) regeneration of 10 mM glycine solution with pH 1.7; 4) immersing in the buffer for 60 seconds; 5) immobilizing the antibody on the sensor for 20 seconds; 6) immersing the sensor in the buffer for 180 seconds; 7) the antigen binding to the antibody for 180 seconds; 8) dissociating the antigen from the antibody for 10 minutes; 9) regenerating the sensor.
# [2] = target: T2, human PD-L1 protein on HEK293 cell (human, UniProt Q9NZQ7 19-290); experiment: flow cytometry screening on HEK293-PD-L1 cells
# T2 construct: whole, on cells; also called HEK293-hPD-L1; HEK293-PD-L1
# T2 sequence (Q9NZQ7 19-290): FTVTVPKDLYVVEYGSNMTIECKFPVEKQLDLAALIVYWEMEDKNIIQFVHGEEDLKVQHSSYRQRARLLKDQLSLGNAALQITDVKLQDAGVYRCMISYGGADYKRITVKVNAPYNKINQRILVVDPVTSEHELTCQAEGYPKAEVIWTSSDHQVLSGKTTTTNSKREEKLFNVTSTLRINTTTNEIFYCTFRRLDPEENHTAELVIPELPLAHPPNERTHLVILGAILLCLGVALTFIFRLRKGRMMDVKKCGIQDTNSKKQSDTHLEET
# Description: Clones that specifically bind to HEK293-PD-L1 cells and can simultaneously block the binding of receptor PD-1 to HEK293-hPD-L1 cells were screened from the fusion plate by flow cytometer and subcloning was carried out by limited dilution method, and finally a monoclonal that can secrete specific antibodies was screened. Monoclonal antibodies were obtained by small-scale production and purification in serum-free medium for subsequent identification, including the detection of the binding ability of antibodies to HEK293-PD-L1, the function of blocking binding of PD-1 to HEK293-hPD-L1 cell, and the mixed lymphocyte experiment to finally obtain candidate anti-human PD-L1 monoclonal antibody 50G2-3. The sequences of the variable regions of murine hybridoma clone 50G2-3 obtained by monoclonal antibody sequencing is as follows: […]
Binder,Kd [1],koff [1],kon [1],binding result [2]
B1,0.302 nM,0.000289 s⁻¹,958000 M⁻¹ s⁻¹,
B2,0.243 nM,0.00025 s⁻¹,1.03e+06 M⁻¹ s⁻¹,
B3,0.452 nM,0.000477 s⁻¹,1.06e+06 M⁻¹ s⁻¹,
B4,0.16 nM,0.000165 s⁻¹,1.03e+06 M⁻¹ s⁻¹,
B5,0.214 nM,0.00021 s⁻¹,980000 M⁻¹ s⁻¹,
B6,,,,binds
